We go through one substance from patent US20190376034A1.

The experiment has as its target immune complexes (Dylight 650-labeled BSA + polyclonal rabbit anti-BSA IgG + human serum complement) (bovine) (UniProt P02769). As to the kind of experiment: cell-based or functional assay.
Sequence of UniProt P02769 (P02769 25-607, one chain of several): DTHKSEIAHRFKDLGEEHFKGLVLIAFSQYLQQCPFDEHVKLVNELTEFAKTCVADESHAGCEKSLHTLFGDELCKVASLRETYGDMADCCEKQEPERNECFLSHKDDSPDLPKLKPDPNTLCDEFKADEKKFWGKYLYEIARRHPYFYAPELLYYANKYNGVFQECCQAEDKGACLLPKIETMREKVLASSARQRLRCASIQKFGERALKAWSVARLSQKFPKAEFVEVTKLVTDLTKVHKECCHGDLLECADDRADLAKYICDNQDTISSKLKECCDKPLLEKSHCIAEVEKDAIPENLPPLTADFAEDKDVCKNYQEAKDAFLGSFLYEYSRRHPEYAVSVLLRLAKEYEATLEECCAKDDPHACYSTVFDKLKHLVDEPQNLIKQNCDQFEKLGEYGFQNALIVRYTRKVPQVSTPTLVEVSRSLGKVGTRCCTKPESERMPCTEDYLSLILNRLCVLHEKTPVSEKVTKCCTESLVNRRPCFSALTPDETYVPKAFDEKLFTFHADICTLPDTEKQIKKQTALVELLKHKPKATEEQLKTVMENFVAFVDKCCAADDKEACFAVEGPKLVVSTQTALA

“complement receptor 1 (CR1) exogenously over-expressed on the surface of cultured erythroid cells (from UniProt P17927 42-2039)”: the uptake of fluorescent immune complexes by activated U937 macrophages in co-culture (flow cytometry) is 2 fold.
